This assay has as its target human serum albumin (HSA) (human, UniProt P02768 25-609). The assay is described as follows: ELISA, HSA coated at 2 ug/ml, anti-His tag primary antibody and HRP secondary antibody, absorbance at 450 nm.

Here are results for one molecule from patent US12098164 (KOREA UNIVERSITY RESEARCH AND BUSINESS FOUNDATION, dated 2024).

Sequence of human serum albumin (HSA) (P02768 25-609 limits assumed): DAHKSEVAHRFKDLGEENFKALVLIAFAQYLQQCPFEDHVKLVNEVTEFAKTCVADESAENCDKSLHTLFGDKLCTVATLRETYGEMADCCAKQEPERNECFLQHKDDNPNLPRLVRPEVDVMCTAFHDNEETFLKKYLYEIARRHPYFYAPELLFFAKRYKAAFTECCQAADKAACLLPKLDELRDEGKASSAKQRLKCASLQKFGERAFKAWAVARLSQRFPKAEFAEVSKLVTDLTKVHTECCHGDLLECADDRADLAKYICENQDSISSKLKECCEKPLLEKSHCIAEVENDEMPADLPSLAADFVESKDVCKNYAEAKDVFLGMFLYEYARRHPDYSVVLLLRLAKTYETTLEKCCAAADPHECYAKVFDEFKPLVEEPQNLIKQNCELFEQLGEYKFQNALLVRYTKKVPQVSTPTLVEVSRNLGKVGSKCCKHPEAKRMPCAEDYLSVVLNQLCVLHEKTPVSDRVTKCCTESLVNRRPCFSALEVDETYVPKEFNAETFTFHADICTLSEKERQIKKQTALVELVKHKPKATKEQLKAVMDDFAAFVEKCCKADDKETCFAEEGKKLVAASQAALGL

B1: hepatitis B virus capsid protein nanoparticles (HBVC) (other)
chain: HHHHHHDIDPYKEFGASVELLSFLPSDFFPSIRDLLDTASALYREALESPEHCSPHHTALRQAILCWGELMNLATWVGSNLEDPASRELVVSYVNVNMGLKIRQLLWFHISCLTFGRETVLEYLVSFGVWIRTPPAYRPPNAPILSTLPETTVV
notes: also called HBVC (aff-, ABP-)
Consider B1, for which the binding result is given as “no binding (tested: 0.001 to 1.5 mg/ml tested)”.
